In patent publication US20180193477A1:

Molecular target: CD3 on human CD3+ Jurkat T cells (human) (UniProt P07766)
Assay: cell-based or functional assay

Sequence of CD3 on human CD3+ Jurkat T cells (human) (P07766 23-207): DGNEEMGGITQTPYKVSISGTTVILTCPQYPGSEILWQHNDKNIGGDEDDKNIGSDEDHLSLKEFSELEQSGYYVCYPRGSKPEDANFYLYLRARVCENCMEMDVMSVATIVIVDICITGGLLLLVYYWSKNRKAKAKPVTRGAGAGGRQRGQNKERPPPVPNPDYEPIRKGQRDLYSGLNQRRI

v2171, bivalent anti-CD3 pHAb conjugated mAb (UCHT1) (antibody)
EC50 (nM) of internalization of the pHAb conjugate, Jurkat cells (CD19-, CD3+): 13.2 nM | internalization of the pHAb conjugate by Jurkat cells: 2 nM
